In PMC11424739:

Test system: CC(C)CC1CC(=O)NC(=O)C1
Assay: purified protein
Assay type: biochemical, Paraburkholderia phytofirmans
Details: 50 mmol L^-1 Tris-HCl pH 8.0, 40 °C, IBI 0.10-2.0 mg mL^-1

Substance	Km	kcat	kcat/Km
BpIH (Paraburkholderia phytofirmans PsJN)	9.02 ± 0.51 mmol/L	0.00967 ± 0.0075 s⁻¹	1.07 M⁻¹ s⁻¹
BpIH (Paraburkholderia phytofirmans PsJN; H133N/S226I/Y37F)	7.31 ± 0.73 mmol/L	0.0573 ± 0.005 s⁻¹	7.82 M⁻¹ s⁻¹
BpIH (Paraburkholderia phytofirmans PsJN; H133N/S226L/Y37F)	8.48 ± 1.03 mmol/L	0.052 ± 0.00367 s⁻¹	5.67 M⁻¹ s⁻¹
BpIH (Paraburkholderia phytofirmans PsJN; S226L)	9.28 ± 1.09 mmol/L	0.0517 ± 0.00617 s⁻¹	5.47 M⁻¹ s⁻¹
